From publication PMC8149476 (Cell Reports Medicine, 2021) come the findings set out here.

Assay [1] has as its target NOTCH3 endogenous on MDA-MB-468 cells (human (endogenous in MDA-MB-468), UniProt Q9UM47). The assay can be described thus: immunostaining of cells or tissue.
The target of assay [2] is human NOTCH3 NRR_AviHis recombinant protein (Homo sapiens, UniProt Q9UM47). The assay can be described thus: SPR.
Assay [3] deals with mouse NOTCH1 receptor expressed on U2OS cells (U2OS-mN1) (Mus musculus, UniProt Q01705). The assay can be described thus: ELISA. For orientation: ELISA stands for enzyme-linked immunosorbent assay.
Sequence of mouse NOTCH1 receptor expressed on U2OS cells (U2OS-mN1) (Q01705 19-2531): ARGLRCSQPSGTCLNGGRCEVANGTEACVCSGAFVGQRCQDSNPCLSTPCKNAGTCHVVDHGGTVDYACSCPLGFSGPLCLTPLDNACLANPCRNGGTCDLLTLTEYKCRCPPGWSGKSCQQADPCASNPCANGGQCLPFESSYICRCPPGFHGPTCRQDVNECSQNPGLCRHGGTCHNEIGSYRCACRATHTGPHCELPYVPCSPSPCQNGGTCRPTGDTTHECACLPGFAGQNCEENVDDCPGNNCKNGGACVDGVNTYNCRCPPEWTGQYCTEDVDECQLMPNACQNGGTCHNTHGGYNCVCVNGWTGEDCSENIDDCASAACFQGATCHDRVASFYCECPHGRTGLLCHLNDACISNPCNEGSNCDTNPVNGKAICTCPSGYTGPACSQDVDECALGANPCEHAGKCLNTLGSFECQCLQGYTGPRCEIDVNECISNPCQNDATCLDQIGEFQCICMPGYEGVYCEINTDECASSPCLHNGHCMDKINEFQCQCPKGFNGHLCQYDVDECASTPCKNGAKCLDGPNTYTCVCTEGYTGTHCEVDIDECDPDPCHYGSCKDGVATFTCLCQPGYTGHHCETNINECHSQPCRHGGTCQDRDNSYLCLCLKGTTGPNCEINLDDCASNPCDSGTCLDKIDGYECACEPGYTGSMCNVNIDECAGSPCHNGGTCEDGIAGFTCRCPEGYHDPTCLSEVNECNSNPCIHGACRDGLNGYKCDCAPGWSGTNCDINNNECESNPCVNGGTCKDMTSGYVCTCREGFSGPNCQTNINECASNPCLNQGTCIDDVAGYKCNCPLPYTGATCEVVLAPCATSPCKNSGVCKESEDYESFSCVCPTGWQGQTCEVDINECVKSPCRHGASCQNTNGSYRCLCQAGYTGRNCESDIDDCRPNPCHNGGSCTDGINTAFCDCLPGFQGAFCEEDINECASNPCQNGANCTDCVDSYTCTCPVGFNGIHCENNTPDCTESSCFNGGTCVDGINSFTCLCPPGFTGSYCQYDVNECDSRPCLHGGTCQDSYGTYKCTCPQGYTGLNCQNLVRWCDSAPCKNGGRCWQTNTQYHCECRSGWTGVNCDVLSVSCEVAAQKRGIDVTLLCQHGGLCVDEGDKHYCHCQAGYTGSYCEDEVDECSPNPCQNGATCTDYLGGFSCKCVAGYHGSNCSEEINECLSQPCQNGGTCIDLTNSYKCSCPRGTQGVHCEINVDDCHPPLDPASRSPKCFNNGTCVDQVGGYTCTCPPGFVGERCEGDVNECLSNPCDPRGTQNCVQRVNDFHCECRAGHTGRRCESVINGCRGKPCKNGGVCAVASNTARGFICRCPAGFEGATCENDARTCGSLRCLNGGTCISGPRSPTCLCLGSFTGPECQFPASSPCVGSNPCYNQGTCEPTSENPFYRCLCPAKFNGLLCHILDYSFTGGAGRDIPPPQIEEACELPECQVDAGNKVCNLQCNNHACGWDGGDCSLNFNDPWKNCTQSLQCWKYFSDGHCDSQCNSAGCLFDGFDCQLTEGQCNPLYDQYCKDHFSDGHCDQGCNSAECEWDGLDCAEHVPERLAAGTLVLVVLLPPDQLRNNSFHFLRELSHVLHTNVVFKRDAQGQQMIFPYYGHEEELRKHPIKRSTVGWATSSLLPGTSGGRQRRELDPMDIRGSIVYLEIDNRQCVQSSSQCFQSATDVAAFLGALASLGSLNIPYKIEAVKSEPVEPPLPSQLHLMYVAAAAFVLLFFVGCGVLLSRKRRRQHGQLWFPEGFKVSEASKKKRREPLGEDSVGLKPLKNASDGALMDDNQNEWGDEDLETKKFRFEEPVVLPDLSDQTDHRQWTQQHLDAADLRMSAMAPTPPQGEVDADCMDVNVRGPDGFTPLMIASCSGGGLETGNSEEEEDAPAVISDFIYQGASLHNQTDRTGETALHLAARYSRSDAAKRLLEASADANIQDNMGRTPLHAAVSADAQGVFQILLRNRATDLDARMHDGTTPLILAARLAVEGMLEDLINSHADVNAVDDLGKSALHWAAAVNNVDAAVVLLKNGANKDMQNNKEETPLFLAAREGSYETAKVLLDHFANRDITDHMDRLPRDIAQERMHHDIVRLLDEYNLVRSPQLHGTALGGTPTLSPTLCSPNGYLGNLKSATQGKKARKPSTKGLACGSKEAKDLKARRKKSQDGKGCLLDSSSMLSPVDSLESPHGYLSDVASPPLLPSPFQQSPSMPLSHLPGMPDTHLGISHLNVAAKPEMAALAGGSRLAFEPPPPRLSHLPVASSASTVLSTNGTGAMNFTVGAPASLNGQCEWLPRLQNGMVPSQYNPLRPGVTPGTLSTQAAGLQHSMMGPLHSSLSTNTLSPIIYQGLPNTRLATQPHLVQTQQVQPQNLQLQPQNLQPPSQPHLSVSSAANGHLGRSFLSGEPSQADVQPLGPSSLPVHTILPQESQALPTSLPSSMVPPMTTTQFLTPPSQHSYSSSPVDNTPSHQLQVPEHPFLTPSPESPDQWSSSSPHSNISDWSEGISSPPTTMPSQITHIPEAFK
The target in assay [4] is human NOTCH1 receptor expressed on U2OS cells (U2OS-hN1) (Homo sapiens, UniProt P46531). The assay can be described thus: ELISA.
The target of assay [5] is mouse NOTCH3 (mN3) expressed on U2OS cells (U2OS-mN3) (mouse, UniProt Q61982). The assay can be described thus: ELISA.
In assay [6] the target is human NOTCH3 receptor expressed on U2OS cells (U2OS-hN3) (human, UniProt Q9UM47). The assay can be described thus: ELISA.
Sequence of human NOTCH3 receptor expressed on U2OS cells (U2OS-hN3) (Q9UM47 40-2321): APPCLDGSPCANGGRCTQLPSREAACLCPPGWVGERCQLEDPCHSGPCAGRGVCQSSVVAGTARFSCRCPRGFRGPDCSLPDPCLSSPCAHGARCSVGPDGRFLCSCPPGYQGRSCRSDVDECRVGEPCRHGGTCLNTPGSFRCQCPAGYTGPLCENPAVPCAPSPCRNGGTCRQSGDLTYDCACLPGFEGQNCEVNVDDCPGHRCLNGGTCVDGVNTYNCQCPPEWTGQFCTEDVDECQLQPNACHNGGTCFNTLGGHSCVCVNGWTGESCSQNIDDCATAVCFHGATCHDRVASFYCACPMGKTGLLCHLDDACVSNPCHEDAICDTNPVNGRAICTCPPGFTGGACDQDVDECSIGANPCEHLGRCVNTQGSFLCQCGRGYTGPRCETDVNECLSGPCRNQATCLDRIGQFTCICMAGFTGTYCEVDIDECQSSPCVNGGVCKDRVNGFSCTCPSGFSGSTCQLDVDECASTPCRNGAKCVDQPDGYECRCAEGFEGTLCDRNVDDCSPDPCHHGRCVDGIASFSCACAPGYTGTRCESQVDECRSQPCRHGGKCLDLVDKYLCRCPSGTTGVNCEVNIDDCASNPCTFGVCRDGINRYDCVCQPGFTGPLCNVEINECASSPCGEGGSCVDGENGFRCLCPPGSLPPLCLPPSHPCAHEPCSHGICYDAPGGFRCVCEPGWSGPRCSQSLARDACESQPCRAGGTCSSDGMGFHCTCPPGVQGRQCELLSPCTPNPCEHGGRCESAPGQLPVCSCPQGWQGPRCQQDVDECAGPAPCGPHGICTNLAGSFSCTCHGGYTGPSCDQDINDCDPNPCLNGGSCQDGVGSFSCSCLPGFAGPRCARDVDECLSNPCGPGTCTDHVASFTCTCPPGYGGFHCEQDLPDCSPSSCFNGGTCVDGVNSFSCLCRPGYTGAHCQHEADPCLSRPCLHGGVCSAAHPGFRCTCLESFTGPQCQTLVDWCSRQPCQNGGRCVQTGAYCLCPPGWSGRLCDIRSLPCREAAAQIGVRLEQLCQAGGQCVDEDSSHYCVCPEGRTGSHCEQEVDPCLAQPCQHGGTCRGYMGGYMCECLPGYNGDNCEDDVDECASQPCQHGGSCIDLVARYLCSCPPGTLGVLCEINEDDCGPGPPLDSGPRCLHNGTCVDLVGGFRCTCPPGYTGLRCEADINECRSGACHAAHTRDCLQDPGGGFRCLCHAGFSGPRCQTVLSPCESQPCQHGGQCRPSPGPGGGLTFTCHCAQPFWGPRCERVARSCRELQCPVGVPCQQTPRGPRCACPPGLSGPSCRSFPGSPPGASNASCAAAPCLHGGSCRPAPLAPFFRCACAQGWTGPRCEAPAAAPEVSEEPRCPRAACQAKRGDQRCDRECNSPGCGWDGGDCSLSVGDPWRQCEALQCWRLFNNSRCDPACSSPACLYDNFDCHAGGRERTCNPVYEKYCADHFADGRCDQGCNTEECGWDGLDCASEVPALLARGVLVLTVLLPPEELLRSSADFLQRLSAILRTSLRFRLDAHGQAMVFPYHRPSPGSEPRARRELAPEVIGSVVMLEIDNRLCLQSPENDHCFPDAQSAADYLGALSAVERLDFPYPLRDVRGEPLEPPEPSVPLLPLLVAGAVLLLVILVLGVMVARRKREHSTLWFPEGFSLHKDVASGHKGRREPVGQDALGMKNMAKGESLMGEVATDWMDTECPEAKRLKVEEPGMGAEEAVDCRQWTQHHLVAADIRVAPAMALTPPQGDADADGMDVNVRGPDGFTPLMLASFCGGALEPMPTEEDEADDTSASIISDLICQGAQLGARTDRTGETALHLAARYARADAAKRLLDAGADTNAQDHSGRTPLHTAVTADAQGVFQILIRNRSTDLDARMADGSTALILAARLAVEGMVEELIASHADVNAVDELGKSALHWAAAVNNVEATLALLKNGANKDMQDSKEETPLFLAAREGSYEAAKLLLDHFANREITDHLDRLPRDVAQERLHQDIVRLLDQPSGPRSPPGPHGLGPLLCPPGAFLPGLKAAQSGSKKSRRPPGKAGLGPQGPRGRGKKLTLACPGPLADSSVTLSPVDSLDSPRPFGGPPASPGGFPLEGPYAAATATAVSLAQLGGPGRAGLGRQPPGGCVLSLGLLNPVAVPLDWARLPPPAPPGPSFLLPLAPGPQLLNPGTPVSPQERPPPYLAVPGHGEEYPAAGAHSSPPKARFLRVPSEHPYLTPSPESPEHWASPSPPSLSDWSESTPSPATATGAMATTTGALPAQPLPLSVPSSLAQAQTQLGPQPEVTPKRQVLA

Sequence of NOTCH3 endogenous on MDA-MB-468 cells (Q9UM47 40-2321): as above

B1: anti-NOTCH3 inhibitory (anti-N3(i)) mAb clone 75 (antibody, V domains shown)
VH: EVQLVESGGGLVQPGGSLRLSCAASGYAFTDYWMTWVRQAPGKGLEWVAEISPNSGGTNFNEKFKGRFTISVDNAKNSLYLQMNSLRAEDTAVYYCARGEIRYNWFAYWGQGTLVTVSS
VL: DIQMTQSPSSLSASVGDRVTITCKASQNVGNNIAWYQQKPGKAPKLLIYYASNRYTGVPSRFSGSGYGTDFTLTISSLQPEDFATYYCQRLYNSPFTFGGGTKVEIK
B1: the binding result in assay [1] is on record as “binds”; in assay [2] it was “binds”; in assay [3], “no binding”; in assay [4], “no binding”; in assay [5], “no binding”; in assay [6] it was “binds”.

B2: Anti-N3(i)-vc0101 ADC (antibody, V domains shown)
VH: EVQLVESGGGLVQPGGSLRLSCAASGYAFTDYWMTWVRQAPGKGLEWVAEISPNSGGTNFNEKFKGRFTISVDNAKNSLYLQMNSLRAEDTAVYYCARGEIRYNWFAYWGQGTLVTVSS
VL: DIQMTQSPSSLSASVGDRVTITCKASQNVGNNIAWYQQKPGKAPKLLIYYASNRYTGVPSRFSGSGYGTDFTLTISSLQPEDFATYYCQRLYNSPFTFGGGTKVEIK
As to B2, the binding result in assay [6] is given as “binds”.
